Laboratory results as given in US20140087995A1 (published 2014).
Numbered stars: 1 amine (or outer) side, 2 acyl side, 3 side chain; on linkers, the order of the positions; unused ones are H or OH. Bridge positions count the residues as written; N and C are the ends. Side chains are listed from the residue outwards. Ends that are not written are not given here. * marks the point of attachment. C20 diacid = O=C(O)CCCCCCCCCCCCCCCCCCC(=O)*; γGlu = O=C(O)[C@H](CCC(=O)[*:2])N[*:1]; AEEA = NCCOCCOCC(=O)O

T1: rat calcitonin receptor (rat, UniProt P32214 25-516)
T1 construct: whole, on cells; membranes of transiently transfected BHK tk'ts 13 cells (Assay VIII); also called rCTR; rat calcitonin (a) receptor
T1 sequence (looked up): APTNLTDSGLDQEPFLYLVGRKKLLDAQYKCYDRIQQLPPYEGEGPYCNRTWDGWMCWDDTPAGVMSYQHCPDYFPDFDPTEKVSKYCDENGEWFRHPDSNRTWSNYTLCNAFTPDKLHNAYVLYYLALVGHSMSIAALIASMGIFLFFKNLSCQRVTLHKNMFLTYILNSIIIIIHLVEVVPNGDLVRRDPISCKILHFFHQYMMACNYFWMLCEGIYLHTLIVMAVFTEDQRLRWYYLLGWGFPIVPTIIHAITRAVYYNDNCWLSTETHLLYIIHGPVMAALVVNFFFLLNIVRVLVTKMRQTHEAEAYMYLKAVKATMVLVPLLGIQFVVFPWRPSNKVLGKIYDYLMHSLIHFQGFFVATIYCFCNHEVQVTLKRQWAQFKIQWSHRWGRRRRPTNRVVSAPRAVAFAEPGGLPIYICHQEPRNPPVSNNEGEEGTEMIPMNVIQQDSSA

T2: rat amylin receptor (rat calcitonin receptor + rat RAMP 3) (rat, UniProt P32214 25-516; Q9JJ73 23-147)
T2 construct: whole, on cells; membranes of transiently transfected BHK tk'ts 13 cells (Assay VI); also called rAmylin-R; rat amylin 3(a) receptor
T2 sequence (looked up) 1: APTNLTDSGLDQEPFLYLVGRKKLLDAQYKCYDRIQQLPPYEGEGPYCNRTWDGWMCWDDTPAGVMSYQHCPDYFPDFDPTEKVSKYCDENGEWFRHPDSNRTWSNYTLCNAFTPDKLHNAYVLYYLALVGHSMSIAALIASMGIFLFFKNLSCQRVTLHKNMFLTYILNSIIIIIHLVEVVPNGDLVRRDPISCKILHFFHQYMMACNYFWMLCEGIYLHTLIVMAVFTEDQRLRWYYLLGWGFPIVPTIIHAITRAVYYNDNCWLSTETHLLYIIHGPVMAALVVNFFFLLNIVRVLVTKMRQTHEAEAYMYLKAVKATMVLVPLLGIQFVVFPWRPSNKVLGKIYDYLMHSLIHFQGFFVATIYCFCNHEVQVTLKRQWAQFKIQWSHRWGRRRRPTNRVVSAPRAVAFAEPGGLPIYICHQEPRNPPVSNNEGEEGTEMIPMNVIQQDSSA
T2 sequence (looked up) 2: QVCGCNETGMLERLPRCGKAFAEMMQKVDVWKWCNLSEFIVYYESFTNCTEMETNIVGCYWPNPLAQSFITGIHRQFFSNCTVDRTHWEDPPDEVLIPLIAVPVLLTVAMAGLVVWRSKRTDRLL

T3: human calcitonin receptor (human, UniProt P30988 25-474)
T3 construct: whole, on cells; membranes of stably transfected BHK cells (Assay VII); also called hCTR; hCT
T3 sequence (looked up): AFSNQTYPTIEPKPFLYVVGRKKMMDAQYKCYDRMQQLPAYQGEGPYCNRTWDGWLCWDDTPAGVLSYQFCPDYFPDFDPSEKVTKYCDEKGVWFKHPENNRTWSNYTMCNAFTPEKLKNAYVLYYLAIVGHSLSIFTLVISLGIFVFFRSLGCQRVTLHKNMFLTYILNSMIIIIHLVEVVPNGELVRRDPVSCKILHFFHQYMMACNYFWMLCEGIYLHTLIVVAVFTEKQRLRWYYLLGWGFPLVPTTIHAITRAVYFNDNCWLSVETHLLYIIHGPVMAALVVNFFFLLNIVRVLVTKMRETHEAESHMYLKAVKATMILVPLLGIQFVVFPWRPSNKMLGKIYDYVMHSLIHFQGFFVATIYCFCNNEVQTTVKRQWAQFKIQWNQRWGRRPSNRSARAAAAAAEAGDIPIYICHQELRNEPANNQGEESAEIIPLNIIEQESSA


What was measured:
rat calcitonin receptor [1] = target: T1, rat calcitonin receptor; experiment: SPA competition with 125I-calcitonin, membranes of BHK cells with rat calcitonin receptor (Assay VIII)
[2] = target: T2, rat amylin receptor (rat calcitonin …); experiment: SPA competition with 125I-rat amylin, membranes of BHK cells with rat calcitonin receptor + rat RAMP3 (Assay VI)
rat calcitonin receptor [3] = target: T1, rat calcitonin receptor; experiment: IC50 on rat calcitonin receptor divided by IC50 on rat amylin receptor (SPA competition)
[4] = target: T3, human calcitonin receptor; experiment: IC50 on human calcitonin receptor divided by IC50 on human amylin receptor (SPA competition)
Experimental: The resulting pellet was resuspended, homogenized and centrifuged (20.000 rpm, 15 min) in a buffer containing 20 mM Na-HEPES and 0.1 mM EDTA (pH 7.4, buffer 2). The resulting pellet was resuspended in buffer 2 and protein concentration was measured (BCA protein Assay, Pierce). The homogenate was kept cold during the whole procedure. The membranes were kept at −80° C. until use. The assay was performed in a 384 well Optiplate (PerkinElmer) in a total volume of 40 ul. Membranes were mixed with SPA beads. Final concentration of membranes 35 ng/μL final and SPA beads was 0.05 mg/well. Test-compounds were dissolved in DMSO and further diluted in assay buffer (50 mM Hepes, pH 7.4, 1 mM CaCl2, 5 mM MgCl₂, 0.1% OA and 0.02% Tween20). […] The final mixture was incubated with shaking at 400 rpm for 120 min at 25° C. prior to centrifugation (1500 rpm, 10 min). Samples were analyzed on TopCounter™ (Packard). The IC₅₀ was calculated using (one site binding competition analysis) GraphPad Prism5 as a measure of receptor affinity.
Membranes were prepared in the following way; the cells were rinsed with PBS and incubated with Versene for approximately 5 min before harvesting. The cells were flushed with PBS and the cell-suspension was centrifuged for 5 min at 1000 rpm. Cells were homogenized (Ultrathurrax) in a buffer containing 20 mM Na-HEPES and 10 mM EDTA (pH 7.4) and centrifuged at 20.000 rpm for 15 min. The resulting pellet was resuspended, homogenized and centrifuged (20.000 rpm, 15 min) in a buffer containing 20 mM Na-HEPES and 0.1 mM EDTA (pH 7.4, buffer 2). The resulting pellet was resuspended in buffer 2 and protein concentration was measured (BCA protein Assay, Pierce). The homogenate was kept cold during the whole procedure. The membranes were kept at −80° C. until use. Assay was performed in a 384 well Optiplate (PerkinElmer) in a total volume of 40 ul. Membranes were mixed with SPA beads.

| Binder | IC50 (rat calcitonin receptor [1]) [nM] | IC50 [2] [nM] | Ratio rCT/rAmylin binding (rat calcitonin receptor [3]) | Ratio hCT/hAmylin binding [4] |
| --- | --- | --- | --- | --- |
| K([γGlu-C20 diacid])CNTATCATQRLANFLRHSSPNFGAIPSSTNVGSETY-NH2 (disulfide 2-7; N-terminus assumed; SMILES CC[C@H](C)[C@H](NC(=O)[C@H](C)NC(=O)CNC(=O)[C@H](Cc1ccccc1)NC(=O)[C@H](CC(N)=O)NC(=O)[C@@H]1CCCN1C(=O)[C@H](CO)NC(=O)[C@H](CO)NC(=O)[C@H](Cc1c[nH]cn1)NC(=O)[C@H](CCCNC(=N)N)NC(=O)[C@H](CC(C)C)NC(=O)[C@H](Cc1ccccc1)NC(=O)[C@H](CC(N)=O)NC(=O)[C@H](C)NC(=O)[C@H](CC(C)C)NC(=O)[C@H](CCCNC(=N)N)NC(=O)[C@H](CCC(N)=O)NC(=O)[C@@H](NC(=O)[C@H](C)NC(=O)[C@@H]1CSSC[C@H](NC(=O)[C@@H](N)CCCCNC(=O)CC[C@H](NC(=O)CCCCCCCCCCCCCCCCCCC(=O)O)C(=O)O)C(=O)N[C@@H](CC(N)=O)C(=O)N[C@@H]([C@@H](C)O)C(=O)N[C@@H](C)C(=O)N[C@@H]([C@@H](C)O)C(=O)N1)[C@@H](C)O)C(=O)N1CCC[C@H]1C(=O)N[C@@H](CO)C(=O)N[C@@H](CO)C(=O)N[C@H](C(=O)N[C@@H](CC(N)=O)C(=O)N[C@H](C(=O)NCC(=O)N[C@@H](CO)C(=O)N[C@@H](CCC(=O)O)C(=O)N[C@H](C(=O)N[C@@H](Cc1ccc(O)cc1)C(N)=O)[C@@H](C)O)C(C)C)[C@@H](C)O, analogue of human amylin; also called compound 27) [N^ε1-[(4S)-4-carboxy-4-(19-carboxynonadecanoylamino)butanoyl]-[Arg17,Pro21,Pro27,Glu35]-h-amylin] | 90.2 | 0.614 | 147 | 41.3 |
| K([γGlu-C20 diacid])CNTATCATQRLANFLRHSSPNFGAIPSSTNVGSKTY-NH2 (disulfide 2-7 (inferred), analogue of human amylin; also called compound 35) [N^ε1-[(4S)-4-carboxy-4-(19-carboxynonadecanoylamino)butanoyl]-[Arg17,Pro21,Pro27,Lys35]-h-amylin] | 61.7 | 0.948 | 65.1 | 50.3 |
| K([γGlu-C20 diacid])CNTATCATQRLAEFLRHSSPNFGAIPSSTNVGSRTY-NH2 (disulfide 2-7 (inferred), analogue of human amylin; also called compound 51) | 62 | 0.523 | 119 | 37.5 |
| K([γGlu-γGlu-C20 diacid])CNTATCATQRLADFLRHSSPNFGAPLSSTNVGSDTY-NH2 (disulfide 2-7 (inferred), analogue of human amylin; also called compound 1) | 135 | 1.3 | 104 | 27.6 |
| K([γGlu-γGlu-C20 diacid])CNTATCATQRLADFLRHSSPNFGAIPSSTNVGSDTY-NH2 (disulfide 2-7 (inferred), analogue of human amylin; also called compound 2) | 108 | 0.295 | 366 | 47.5 |
| {C20 diacid-γGlu}-KCNTATCATQRLAEFLRHSSPNFGAIPSSTNVGKNTY-NH2 (disulfide 2-7 (inferred), analogue of human amylin; also called compound 36) | 60.1 | 1.86 | 32.4 | 15.7 |
| KCNTATCATQRLANFLRHSSPNFGAIPSSTNVGSNTY (C20 diacid-gGlu-2xOEG on the alpha amino group of the N-terminal residue (Lys 1); disulfide bridge between the two Cys residues; C-terminal amide, analogue of human amylin; also called compound 24) | 350 | 3.01 | 116 | 90 |
| K([AEEA-γGlu-C20 diacid])CNTATCATQRLANFLRHSSPNFGAIPSSTNVGSNTY-NH2 (disulfide 2-7 (inferred), analogue of human amylin; also called compound 41) | 74.1 | 1.37 | 54 | 49.9 |
| K([γGlu-C20 diacid])RCNTATCATQRLANFLRHSSPNFGAIPSSTNVGSHTY-NH2 (disulfide 3-8 (inferred), analogue of human amylin extended by Lys at the N-terminus; also called compound 44) | 19.6 | 0.369 | 53.3 | 17.7 |

Further lines, results first:

| IC50 (rat calcitonin receptor [1]) [nM] | IC50 [2] [nM] | Ratio rCT/rAmylin binding (rat calcitonin receptor [3]) | Ratio hCT/hAmylin binding [4] | Binder |
| --- | --- | --- | --- | --- |
| 16.7 | 1 | 16.7 | 17.3 | K([γGlu-γGlu-C20 diacid])CNTATCATQRLADFLRHSSNPFGAPLSSTNVGSDTY-NH2 (disulfide 2-7 (inferred), analogue of human amylin; also called compound 3) |
| 51.5 | 2.37 | 21.7 | 20 | {C20 diacid-γGlu}-KCNTATCATQRLAEFLRHSSPNFGPILPPTNVGSNTY-NH2 (disulfide 2-7 (inferred), analogue of human amylin; also called compound 6) |
| 15.3 | 0.603 | 25.4 | 30.7 | K(C20 diacid)CNTATCATQRLANFLRHSSPNFGAIPSSTNVGSNTY-NH2 (disulfide 2-7 (inferred), analogue of human amylin; also called compound 42) [N^ε1-19-carboxynonadecanoyl-[Arg17,Pro21,Pro27]-h-amylin] |
| 7.6 | 0.11 | 69.1 | 34.7 | K([AEEA-C20 diacid])CNTATCATQRLANFLRHSSPNFGAIPSSTNVGSNTY-NH2 (disulfide 2-7 (inferred), analogue of human amylin; also called compound 43) [N^ε1-[2-[2-[2-(19-carboxynonadecanoylamino)ethoxy]ethoxy]acetyl]-[Arg17,Pro21,Pro27]-h-amylin] |
| 17.1 | 0.203 | 84.3 | 44.9 | {C20 diacid-γGlu}-GRCNTATCATQRLANFLRHSSPNFGAIPSSTNVGSHTY-NH2 (disulfide 3-8 (inferred), analogue of human amylin extended by Gly at the N-terminus; also called compound 47) |
| 46.8 | 0.33 | 142 | 48.9 | {C20 diacid-γGlu}-GRCNTATCATQRLANFLRHSSPNFGAIPSSTNVGSNTY-NH2 (disulfide 3-8 (inferred), analogue of human amylin extended by Gly at the N-terminus; also called compound 46) [N^-1-[(4S)-4-carboxy-4-(19-carboxynonadecanoylamino)butanoyl]-Gly[Arg1,Arg17,Pro21,Pro27]-h-amylin] |
| 41.8 | 0.623 | 67.1 | 26.8 | K([AEEA-γGlu-C20 diacid])RCNTATCATQRLANFLRHSSPNFGAIPSSTNVGSHTY-NH2 (disulfide 3-8 (inferred), analogue of human amylin extended by Lys at the N-terminus; also called compound 45) |
